Details in all cases: both partners purified
The target of assay [1] is T1, Ube2N (UniProt P61088 1-152).
T1 construct: Ube2N, ubiquitin-conjugating enzyme E2 N; also called wtUbe2N; source: E. coli Rossetta2 (DE3), purified (ion exchange, SEC)
T1 sequence (looked up): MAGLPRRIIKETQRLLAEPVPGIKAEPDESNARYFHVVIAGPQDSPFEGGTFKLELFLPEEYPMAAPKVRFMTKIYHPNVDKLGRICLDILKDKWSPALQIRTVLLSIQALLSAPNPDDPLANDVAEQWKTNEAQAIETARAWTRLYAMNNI
The experiment in a line: ITC; ZNRF1^CTD in the cell, Ube2N in the syringe; 25°C; Na-phosphate pH 8.0, 450 mM NaCl; single site model.

The next assay addresses T2, Ube2N^A98T (UniProt P61088 1-152, A98T).
T2 construct: Ube2N, ubiquitin-conjugating enzyme E2 N, with A98T; source: E. coli Rossetta2 (DE3), purified (ion exchange, SEC)
T2 sequence (looked up): T1 sequence (looked up) with A98T
Nature of the assay: ITC; ZNRF1 construct (10–30 µM) in the cell, E2 in the syringe; 25°C; 20 mM sodium phosphate pH 8.0, 150 mM NaCl; single site model.

In another assay the target is T3, Ube2N^S96R (UniProt P61088 1-152, S96R).
T3 construct: Ube2N, ubiquitin-conjugating enzyme E2 N, with S96R; source: E. coli Rossetta2 (DE3), purified (ion exchange, SEC)
T3 sequence (looked up): T1 sequence (looked up) with S96R
The description is as above.

A further assay concerns the target T4, Ube2N^R14E (UniProt P61088 1-152, R14E).
T4 construct: Ube2N, ubiquitin-conjugating enzyme E2 N, with R14E; source: E. coli Rossetta2 (DE3), purified (ion exchange, SEC)
T4 sequence (looked up): T1 sequence (looked up) with R14E
The description is as above.

Another assay has as its target T5, Ube2N^R14A (UniProt P61088 1-152, R14A).
T5 construct: Ube2N, ubiquitin-conjugating enzyme E2 N, with R14A; source: E. coli Rossetta2 (DE3), purified (ion exchange, SEC)
T5 sequence (looked up): T1 sequence (looked up) with R14A
The description is as above.

Assay [2] concerns the target T1, Ube2N. Described as above.
In another assay the target is T6, Ube2N^R14D (UniProt P61088 1-152, R14D).
T6 construct: Ube2N, ubiquitin-conjugating enzyme E2 N, with R14D; source: E. coli Rossetta2 (DE3), purified (ion exchange, SEC)
T6 sequence (looked up): T1 sequence (looked up) with R14D
The description is as above.

The next assay addresses T7, Ube2N/Ube2V1 complex (UniProt P61088 1-152; Q13404 1-147).
T7 construct: Ube2N, ubiquitin-conjugating enzyme E2 N; Ube2V1, ubiquitin-conjugating enzyme E2 variant 1; also called Ube2N/V1; source: E. coli Rossetta2 (DE3), each purified, mixed in stoichiometric amounts, complex isolated by SEC
The description is as above.

The target in the next assay is T8, Ube2D2 (UniProt P62837 1-147).
T8 construct: Ube2D2, ubiquitin-conjugating enzyme E2 D2; also called wtUbe2D2; wild-type Ube2D2; source: E. coli Rossetta2 (DE3), purified (ion exchange, SEC)
Described as above.

In a further assay the target is T9, Ube2W (UniProt Q96B02 1-151).
T9 construct: Ube2W, ubiquitin-conjugating enzyme E2 W; source: E. coli Rossetta2 (DE3), purified (ion exchange, SEC)
The assay is described as above.

Assay [3] has as its target T1, Ube2N. The experiment in a line: ITC; ZNRF1^CTD in the cell, Ube2N in the syringe; 25°C; Na-phosphate pH 8.0, 300 mM NaCl; single site model.

Substitutions are numbered along the chain they refer to.

T7 sequence (Q13404 whole entry, one chain of several): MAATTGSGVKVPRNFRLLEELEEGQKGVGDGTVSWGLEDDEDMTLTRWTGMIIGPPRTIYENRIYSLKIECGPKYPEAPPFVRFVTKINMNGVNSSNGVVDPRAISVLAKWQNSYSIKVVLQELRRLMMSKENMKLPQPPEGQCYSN

B1: ZNRF1^CTD (C-terminal domain of ZNRF1, residues 139–227) (domain or fragment, UniProt Q8ND25 139-227, looked up)
chain: SHSGFKCPICSKSVASDEMEMHFIMCLSKPRLSYNDDVLTKDAGECVICLEELLQGDTIARLPCLCIYHKSCIDSWFEVNRSCPEHPAD
notes: ZNRF1, RING E3 ubiquitin ligase, residues 139-227 of the full-length protein (ZnF and RING domains); also called ZNRF1 C-terminal domain; ZRNF1^CTD; source: E. coli Rossetta2 (DE3), purified (HisTrap, SEC)
As a reminder, the Kd is the equilibrium constant for the complex coming apart. Low readings indicate a tighter complex, high ones a looser complex. For B1, the Kd with Ube2N [1] amounted to 225 nM; in the assay with Ube2N^A98T, 408 nM; with Ube2N^S96R, 203 nM; with Ube2N^R14E, 1080 nM; with Ube2N^R14A, 320 nM; with Ube2N [2] it was 38.8 nM. Moreover, the dissociation constant Kd in the assay with Ube2N^R14D is 948 nM; in the assay with Ube2N/Ube2V1 complex it was 39.2 nM; with Ube2D2 it was 1130 nM; with Ube2W, 1090 nM; in the assay with Ube2N [3], 171 nM.

The values above are taken from PMC5941314, “Structural insights into the nanomolar affinity of RING E3 ligase ZNRF1 for Ube2N and its functional implications” (Biochemical Journal, 2018).
